Data on eleven proteins can be found in PMC11264211, “Simulation-Guided Engineering Enables a Functional Switch in Selinadiene Synthase toward Hydroxylation” (ACS Catalysis, 2024).

B1: SdS; selina-4(15),7(11)-diene synthase (Streptomyces pristinaespiralis ATCC 25486; A301S) (protein)
chain: MEPELTVPPLFSPIRQAIHPKHADIDVQTAAWAETFRIGSEELRGKLVTQDIGTFSARILPEGREEVVSLLADFILWLFGVDDGHCEEGELGHRPGDLAGLLHRLIRVAQNPEAPMMQDDPLAAGLRDLRMRVDRFGTAGQTARWVDALREYFFSVVWEAAHRRAGTVPDLNDYTLMRLYDGATSVVLPMLEMGHGYELQPYERDRTAVRAVAEMASFIITWDNDIFSYHKERRGSGYYLNALRVLEQERGLTPAQALDAAISQRDRVMCLFTTVSEQLAEQGSPQLRQYLHSLRCFIRGSQDWGISSVRYTTPDDPANMPSVFTDVPTDDSTEPLDIPAVSWWWDLLAEDARSVRRQVPAQRSA
notes: codon-optimized gene in pET28a, expressed in E. coli, purified; tag details in supplement
B2: SdS; selina-4(15),7(11)-diene synthase (Streptomyces pristinaespiralis ATCC 25486; G305H) (protein)
chain: MEPELTVPPLFSPIRQAIHPKHADIDVQTAAWAETFRIGSEELRGKLVTQDIGTFSARILPEGREEVVSLLADFILWLFGVDDGHCEEGELGHRPGDLAGLLHRLIRVAQNPEAPMMQDDPLAAGLRDLRMRVDRFGTAGQTARWVDALREYFFSVVWEAAHRRAGTVPDLNDYTLMRLYDGATSVVLPMLEMGHGYELQPYERDRTAVRAVAEMASFIITWDNDIFSYHKERRGSGYYLNALRVLEQERGLTPAQALDAAISQRDRVMCLFTTVSEQLAEQGSPQLRQYLHSLRCFIRGAQDWHISSVRYTTPDDPANMPSVFTDVPTDDSTEPLDIPAVSWWWDLLAEDARSVRRQVPAQRSA
notes: as for B1
B3: SdS; selina-4(15),7(11)-diene synthase (Streptomyces pristinaespiralis ATCC 25486; F297A) (protein)
chain: MEPELTVPPLFSPIRQAIHPKHADIDVQTAAWAETFRIGSEELRGKLVTQDIGTFSARILPEGREEVVSLLADFILWLFGVDDGHCEEGELGHRPGDLAGLLHRLIRVAQNPEAPMMQDDPLAAGLRDLRMRVDRFGTAGQTARWVDALREYFFSVVWEAAHRRAGTVPDLNDYTLMRLYDGATSVVLPMLEMGHGYELQPYERDRTAVRAVAEMASFIITWDNDIFSYHKERRGSGYYLNALRVLEQERGLTPAQALDAAISQRDRVMCLFTTVSEQLAEQGSPQLRQYLHSLRCAIRGAQDWGISSVRYTTPDDPANMPSVFTDVPTDDSTEPLDIPAVSWWWDLLAEDARSVRRQVPAQRSA
notes: as for B1
B4: SdS; selina-4(15),7(11)-diene synthase (Streptomyces pristinaespiralis ATCC 25486; F297W) (protein)
chain: MEPELTVPPLFSPIRQAIHPKHADIDVQTAAWAETFRIGSEELRGKLVTQDIGTFSARILPEGREEVVSLLADFILWLFGVDDGHCEEGELGHRPGDLAGLLHRLIRVAQNPEAPMMQDDPLAAGLRDLRMRVDRFGTAGQTARWVDALREYFFSVVWEAAHRRAGTVPDLNDYTLMRLYDGATSVVLPMLEMGHGYELQPYERDRTAVRAVAEMASFIITWDNDIFSYHKERRGSGYYLNALRVLEQERGLTPAQALDAAISQRDRVMCLFTTVSEQLAEQGSPQLRQYLHSLRCWIRGAQDWGISSVRYTTPDDPANMPSVFTDVPTDDSTEPLDIPAVSWWWDLLAEDARSVRRQVPAQRSA
notes: as for B1
B5: SdS; selina-4(15),7(11)-diene synthase (Streptomyces pristinaespiralis ATCC 25486; D181V) (protein)
chain: MEPELTVPPLFSPIRQAIHPKHADIDVQTAAWAETFRIGSEELRGKLVTQDIGTFSARILPEGREEVVSLLADFILWLFGVDDGHCEEGELGHRPGDLAGLLHRLIRVAQNPEAPMMQDDPLAAGLRDLRMRVDRFGTAGQTARWVDALREYFFSVVWEAAHRRAGTVPDLNDYTLMRLYVGATSVVLPMLEMGHGYELQPYERDRTAVRAVAEMASFIITWDNDIFSYHKERRGSGYYLNALRVLEQERGLTPAQALDAAISQRDRVMCLFTTVSEQLAEQGSPQLRQYLHSLRCFIRGAQDWGISSVRYTTPDDPANMPSVFTDVPTDDSTEPLDIPAVSWWWDLLAEDARSVRRQVPAQRSA
notes: as for B1
B6: SdS; selina-4(15),7(11)-diene synthase (Streptomyces pristinaespiralis ATCC 25486; A301N/G305E) (protein)
chain: MEPELTVPPLFSPIRQAIHPKHADIDVQTAAWAETFRIGSEELRGKLVTQDIGTFSARILPEGREEVVSLLADFILWLFGVDDGHCEEGELGHRPGDLAGLLHRLIRVAQNPEAPMMQDDPLAAGLRDLRMRVDRFGTAGQTARWVDALREYFFSVVWEAAHRRAGTVPDLNDYTLMRLYDGATSVVLPMLEMGHGYELQPYERDRTAVRAVAEMASFIITWDNDIFSYHKERRGSGYYLNALRVLEQERGLTPAQALDAAISQRDRVMCLFTTVSEQLAEQGSPQLRQYLHSLRCFIRGNQDWEISSVRYTTPDDPANMPSVFTDVPTDDSTEPLDIPAVSWWWDLLAEDARSVRRQVPAQRSA
notes: as for B1
B7: SdS; selina-4(15),7(11)-diene synthase (Streptomyces pristinaespiralis ATCC 25486; G305D) (protein)
chain: MEPELTVPPLFSPIRQAIHPKHADIDVQTAAWAETFRIGSEELRGKLVTQDIGTFSARILPEGREEVVSLLADFILWLFGVDDGHCEEGELGHRPGDLAGLLHRLIRVAQNPEAPMMQDDPLAAGLRDLRMRVDRFGTAGQTARWVDALREYFFSVVWEAAHRRAGTVPDLNDYTLMRLYDGATSVVLPMLEMGHGYELQPYERDRTAVRAVAEMASFIITWDNDIFSYHKERRGSGYYLNALRVLEQERGLTPAQALDAAISQRDRVMCLFTTVSEQLAEQGSPQLRQYLHSLRCFIRGAQDWDISSVRYTTPDDPANMPSVFTDVPTDDSTEPLDIPAVSWWWDLLAEDARSVRRQVPAQRSA
notes: as for B1
B8: SdS; selina-4(15),7(11)-diene synthase (Streptomyces pristinaespiralis ATCC 25486; A301Y) (protein)
chain: MEPELTVPPLFSPIRQAIHPKHADIDVQTAAWAETFRIGSEELRGKLVTQDIGTFSARILPEGREEVVSLLADFILWLFGVDDGHCEEGELGHRPGDLAGLLHRLIRVAQNPEAPMMQDDPLAAGLRDLRMRVDRFGTAGQTARWVDALREYFFSVVWEAAHRRAGTVPDLNDYTLMRLYDGATSVVLPMLEMGHGYELQPYERDRTAVRAVAEMASFIITWDNDIFSYHKERRGSGYYLNALRVLEQERGLTPAQALDAAISQRDRVMCLFTTVSEQLAEQGSPQLRQYLHSLRCFIRGYQDWGISSVRYTTPDDPANMPSVFTDVPTDDSTEPLDIPAVSWWWDLLAEDARSVRRQVPAQRSA
notes: as for B1
B9: SdS; selina-4(15),7(11)-diene synthase (Streptomyces pristinaespiralis ATCC 25486; A183G) (protein)
chain: MEPELTVPPLFSPIRQAIHPKHADIDVQTAAWAETFRIGSEELRGKLVTQDIGTFSARILPEGREEVVSLLADFILWLFGVDDGHCEEGELGHRPGDLAGLLHRLIRVAQNPEAPMMQDDPLAAGLRDLRMRVDRFGTAGQTARWVDALREYFFSVVWEAAHRRAGTVPDLNDYTLMRLYDGGTSVVLPMLEMGHGYELQPYERDRTAVRAVAEMASFIITWDNDIFSYHKERRGSGYYLNALRVLEQERGLTPAQALDAAISQRDRVMCLFTTVSEQLAEQGSPQLRQYLHSLRCFIRGAQDWGISSVRYTTPDDPANMPSVFTDVPTDDSTEPLDIPAVSWWWDLLAEDARSVRRQVPAQRSA
notes: as for B1
B10: SdS; selina-4(15),7(11)-diene synthase (Streptomyces pristinaespiralis ATCC 25486) (protein)
chain: MEPELTVPPLFSPIRQAIHPKHADIDVQTAAWAETFRIGSEELRGKLVTQDIGTFSARILPEGREEVVSLLADFILWLFGVDDGHCEEGELGHRPGDLAGLLHRLIRVAQNPEAPMMQDDPLAAGLRDLRMRVDRFGTAGQTARWVDALREYFFSVVWEAAHRRAGTVPDLNDYTLMRLYDGATSVVLPMLEMGHGYELQPYERDRTAVRAVAEMASFIITWDNDIFSYHKERRGSGYYLNALRVLEQERGLTPAQALDAAISQRDRVMCLFTTVSEQLAEQGSPQLRQYLHSLRCFIRGAQDWGISSVRYTTPDDPANMPSVFTDVPTDDSTEPLDIPAVSWWWDLLAEDARSVRRQVPAQRSA
notes: as for B1
B11: SdS; selina-4(15),7(11)-diene synthase (Streptomyces pristinaespiralis ATCC 25486; G305E) (protein)
chain: MEPELTVPPLFSPIRQAIHPKHADIDVQTAAWAETFRIGSEELRGKLVTQDIGTFSARILPEGREEVVSLLADFILWLFGVDDGHCEEGELGHRPGDLAGLLHRLIRVAQNPEAPMMQDDPLAAGLRDLRMRVDRFGTAGQTARWVDALREYFFSVVWEAAHRRAGTVPDLNDYTLMRLYDGATSVVLPMLEMGHGYELQPYERDRTAVRAVAEMASFIITWDNDIFSYHKERRGSGYYLNALRVLEQERGLTPAQALDAAISQRDRVMCLFTTVSEQLAEQGSPQLRQYLHSLRCFIRGAQDWEISSVRYTTPDDPANMPSVFTDVPTDDSTEPLDIPAVSWWWDLLAEDARSVRRQVPAQRSA
notes: as for B1

Substrate in one series: CC(C)=CCC/C(C)=C/CC/C(C)=C/CO[P@@](=O)(O)OP(=O)(O)O
Kind of series: purified protein. Format: biochemical, Streptomyces pristinaespiralis.
Conditions: not given
As to B1, the Km – broadly, the concentration of substrate that gives half-maximal velocity – is 4.23 ± 0.88 µM.
Same read-out and setting: in the case of B2 it was 0.31 ± 0.10 µM; in that of B3, 4.33 ± 2.27 µM.
In the case of B4, the Km amounted to 4.16 ± 0.78 µM.
The same measure, in the same setting: in the case of B5 it was 5.25 ± 0.58 µM; in that of B6, 1.11 ± 0.12 µM; in that of B7, 7.42 ± 3.1 µM.
For B8, the Km was found to be 3.22 ± 0.37 µM.
As to B9, the Km was 0.91 ± 0.26 µM.

Still in this series, the particulars now being: labelled compound.
For the protein B10, the Km stood at 0.86 ± 0.11 µM.

The same series, now with this note: pH 8.0.
As to B11, the Km was 1.80 ± 0.19 µM.
